Measured values published in patent US6420345 (CELL GENESYS, dated 2002).

Key:
CDC2/cyclin B complex = CDC2/cyclin B complex (UniProt P06493 1-297; P14635 1-433); test: cell-based or functional assay
CDK2/cyclin E complex = CDK2/cyclin E complex (UniProt P24941 1-298; P24864 16-410); test: cell-based or functional assay
CDK4/cyclin D1 complex [1] = target: T1, CDK4/cyclin D1 complex (UniProt P11802 1-303; P24385 1-295); test: cell-based or functional assay
CDK2/cyclin A complex = CDK2/cyclin A complex (UniProt P24941 1-298; P20248 1-432); test: cell-based or functional assay
CDK4/cyclin D1 complex [2] = target: T1, CDK4/cyclin D1 complex; test: in vitro kinase inhibition assay (32P incorporation into GST-Rb)
Protocol: Partial purification of CDK4/cyclin D1 was achieved by a 20–40% ammonium sulfate preparation of the cell lysate and was used in the assays. […] These assays were carried out in 96 well plates (Nunc, Naperville, Ill.) and monitored by γ-^32P-ATP incorporation.
The concentrations of GST-Rb and histone H1 were 4.4 mM and 19 mM, respectively, and the concentration of ATP was 50–60 mM. The reaction mixtures contained 50 mM Tris-Cl pH 7.5, 10 mM MgCl_2, and 1 mM DTT in a total volume of 50 or 100 µl. After incubation at 30° C. for 10–20 minutes, the reaction was terminated by the addition of a stop solution containing EDTA. The phosphorylated substrates were captured either by GST-Sepharose or TCA precipitation and then monitored for radioactivity (Microplate Scintillation Counter, Packard, Meriden, Conn.).

T1 sequence (P11802 whole entry, chain 1 of 2): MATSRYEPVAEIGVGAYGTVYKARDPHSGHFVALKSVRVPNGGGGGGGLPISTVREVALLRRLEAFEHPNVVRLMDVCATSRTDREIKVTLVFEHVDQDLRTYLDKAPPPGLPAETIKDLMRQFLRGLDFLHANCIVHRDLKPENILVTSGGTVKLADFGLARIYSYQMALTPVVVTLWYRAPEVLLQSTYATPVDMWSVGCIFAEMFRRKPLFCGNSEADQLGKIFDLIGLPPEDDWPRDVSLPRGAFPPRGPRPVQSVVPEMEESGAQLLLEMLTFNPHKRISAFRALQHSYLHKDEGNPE
T1 sequence (P24385 whole entry, chain 2 of 2): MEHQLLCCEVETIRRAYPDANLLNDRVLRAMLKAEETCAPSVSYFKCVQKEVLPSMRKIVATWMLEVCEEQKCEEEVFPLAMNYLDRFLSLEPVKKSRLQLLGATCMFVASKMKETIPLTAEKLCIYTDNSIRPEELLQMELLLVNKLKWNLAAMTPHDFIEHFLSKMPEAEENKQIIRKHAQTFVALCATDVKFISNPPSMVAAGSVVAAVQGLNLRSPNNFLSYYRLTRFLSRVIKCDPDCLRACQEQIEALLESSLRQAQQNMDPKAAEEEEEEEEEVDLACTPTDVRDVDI
CDC2/cyclin B complex, sequence (P06493 whole entry, chain 1 of 2): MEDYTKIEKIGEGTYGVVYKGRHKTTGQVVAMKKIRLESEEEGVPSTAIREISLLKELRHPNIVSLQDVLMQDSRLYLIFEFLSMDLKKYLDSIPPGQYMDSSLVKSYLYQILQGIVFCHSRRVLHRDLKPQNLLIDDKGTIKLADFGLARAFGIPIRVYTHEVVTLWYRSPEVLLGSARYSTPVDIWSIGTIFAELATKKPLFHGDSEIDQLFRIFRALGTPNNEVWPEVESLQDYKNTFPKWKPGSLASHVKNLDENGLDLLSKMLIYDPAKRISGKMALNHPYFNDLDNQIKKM
CDC2/cyclin B complex, sequence (P14635 whole entry, chain 2 of 2): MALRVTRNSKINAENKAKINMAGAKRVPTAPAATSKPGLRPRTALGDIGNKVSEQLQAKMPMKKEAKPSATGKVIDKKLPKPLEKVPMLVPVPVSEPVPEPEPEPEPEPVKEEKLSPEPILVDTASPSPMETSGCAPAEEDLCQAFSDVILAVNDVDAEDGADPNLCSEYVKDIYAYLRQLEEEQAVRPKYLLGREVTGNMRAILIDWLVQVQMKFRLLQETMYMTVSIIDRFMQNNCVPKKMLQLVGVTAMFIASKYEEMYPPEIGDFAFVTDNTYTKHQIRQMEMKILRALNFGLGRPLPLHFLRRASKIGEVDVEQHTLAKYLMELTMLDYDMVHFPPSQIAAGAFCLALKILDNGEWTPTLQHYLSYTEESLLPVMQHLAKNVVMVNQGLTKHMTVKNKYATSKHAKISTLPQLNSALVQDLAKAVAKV

B1: human p16 (other)
chain: MEPAAGSSMEPSADWLATAAARGRVEEVRALLEAGALPNAPNSYGRRPIQVMMMGSARVAELLLLHGAEPNCADPATLTRPVHDAAREGFLDTLVVLHRAGARLDVRDAWGRLPVDLAEELGHRDVARYLRAAAGGTRGSNHARIDAAEGPSDIPD
notes: also called p16INK4
IC50, in vitro kinase assay (CDC2/cyclin B complex): > 500 nM | IC50, in vitro kinase assay (CDK2/cyclin E complex): > 500 nM | IC50, in vitro kinase assay (CDK4/cyclin D1 complex [1]): 250 nM | IC50, in vitro kinase assay (CDK2/cyclin A complex): > 500 nM | Ki (CDK4/cyclin D1 complex [2]): 75 nM
